Patent publication US20220033784A1 (priority 2020, published 2022)
Changes are numbered by the printed parent chain. In names and notes the source's numbering stands.

T1: mouse high-affinity IL-2R (IL-2Rα/CD25 + IL-2Rβ + IL-2Rγ) on murine splenocytes (Treg cells, CD3+CD4+CD25+Foxp3+) (mouse) (UniProt P01590)
T1 sequence 1: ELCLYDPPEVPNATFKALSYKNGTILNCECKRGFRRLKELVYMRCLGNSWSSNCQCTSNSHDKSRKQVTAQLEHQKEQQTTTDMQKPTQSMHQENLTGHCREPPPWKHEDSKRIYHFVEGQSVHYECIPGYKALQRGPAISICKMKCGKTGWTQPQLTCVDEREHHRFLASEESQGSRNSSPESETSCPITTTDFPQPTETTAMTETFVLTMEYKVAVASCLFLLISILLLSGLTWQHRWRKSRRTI
T1 sequence 2: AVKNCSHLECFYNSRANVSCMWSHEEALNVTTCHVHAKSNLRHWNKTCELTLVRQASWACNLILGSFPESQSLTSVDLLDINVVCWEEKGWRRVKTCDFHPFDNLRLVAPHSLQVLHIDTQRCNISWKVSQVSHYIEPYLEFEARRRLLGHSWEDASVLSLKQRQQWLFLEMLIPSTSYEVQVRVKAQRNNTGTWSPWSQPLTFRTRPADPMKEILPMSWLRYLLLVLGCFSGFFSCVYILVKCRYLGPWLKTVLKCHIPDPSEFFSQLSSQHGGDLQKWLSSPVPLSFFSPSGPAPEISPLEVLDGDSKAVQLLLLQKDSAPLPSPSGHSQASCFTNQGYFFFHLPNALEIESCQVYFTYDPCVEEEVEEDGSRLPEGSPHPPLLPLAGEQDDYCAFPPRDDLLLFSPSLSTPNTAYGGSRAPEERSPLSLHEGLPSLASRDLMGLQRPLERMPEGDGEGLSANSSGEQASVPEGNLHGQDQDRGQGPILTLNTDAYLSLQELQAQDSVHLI
T1 sequence 3: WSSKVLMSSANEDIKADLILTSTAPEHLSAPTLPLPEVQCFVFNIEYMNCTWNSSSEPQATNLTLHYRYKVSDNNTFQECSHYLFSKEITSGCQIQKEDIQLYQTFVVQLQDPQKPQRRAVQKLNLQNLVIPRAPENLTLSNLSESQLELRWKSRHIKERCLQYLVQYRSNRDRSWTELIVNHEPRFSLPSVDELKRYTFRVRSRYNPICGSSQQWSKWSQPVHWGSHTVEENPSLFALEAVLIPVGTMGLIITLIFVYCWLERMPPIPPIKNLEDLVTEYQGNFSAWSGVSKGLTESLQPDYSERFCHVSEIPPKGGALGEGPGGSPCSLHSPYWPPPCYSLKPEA

T2: mouse intermediate-affinity IL-2R (IL-2Rβ + IL-2Rγ) on murine splenocytes (CD8+ T cells and NK cells) (mouse) (UniProt P16297)
T2 sequence 1: T1 sequence 2
T2 sequence 2: T1 sequence 3

T3: hIL2Rα (CD25) (Homo sapiens, UniProt P01589)
T3 construct: Purified soluble ligands were covalently coupled onto a CM5 sensor chip
T3 sequence (P01589 22-240 limits assumed): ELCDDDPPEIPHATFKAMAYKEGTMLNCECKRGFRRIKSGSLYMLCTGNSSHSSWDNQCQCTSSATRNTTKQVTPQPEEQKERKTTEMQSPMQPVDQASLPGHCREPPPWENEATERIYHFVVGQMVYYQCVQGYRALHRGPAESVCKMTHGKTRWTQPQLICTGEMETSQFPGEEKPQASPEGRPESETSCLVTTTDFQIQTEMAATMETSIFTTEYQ

T4: hILR2β (CD122) (Homo sapiens, UniProt P14784)
T4 sequence (P14784 27-240 limits assumed): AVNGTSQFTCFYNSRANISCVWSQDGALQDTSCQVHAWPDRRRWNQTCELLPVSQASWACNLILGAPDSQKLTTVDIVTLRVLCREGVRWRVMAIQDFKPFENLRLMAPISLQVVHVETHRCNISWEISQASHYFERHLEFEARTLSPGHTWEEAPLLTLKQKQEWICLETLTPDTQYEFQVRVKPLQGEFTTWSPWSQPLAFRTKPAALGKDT

B1: Fc-IL2-R38N:L40T-K43N:Y45T (protein)
chain: APTSSSTKKTQLQLEHLLLDLQMILNGINNYKNPKLTNMTTFNFTMPKKATELKHLQCLEEELKPLEEVLNLAQSKNFHLRPRDLISNINVIVLELKGSETTFMCEYADETATIVEFLNRWITFCQSIISTLT
B2: Fc-IL2-K43N:Y45T-L72N:Q74T (protein)
chain: B1 chain with N38R, T40L, L72N, Q74T

Experiments:
[1] = target: human intermediate-affinity IL-2 receptor complex, IL-2 CD122/CD132 (β/γ), on cells (human) (UniProt P14784)
[2] = target: human high-affinity IL-2 receptor complex, IL-2 CD25/CD122/CD132 (α/β/γ), on cells (human) (UniProt P01589)
[3] = target: T1, mouse high-affinity IL-2R (IL-2Rα/CD25 + IL-2Rβ + IL-2Rγ) on murine splenocytes (Treg cells, CD3+CD4+CD25+Foxp3+) (mouse)
[4] = target: T2, mouse intermediate-affinity IL-2R (IL-2Rβ + IL-2Rγ) on murine splenocytes (CD8+ T cells and NK cells) (mouse)
[5] = target: T2, mouse intermediate-affinity IL-2R (IL-2Rβ + IL-2Rγ) on murine splenocytes (CD8+ T cells and NK cells) (mouse); remark: listed apart in the source
hIL2Rα (CD25) = target: T3, hIL2Rα (CD25); assay: Biacore 8K surface plasmon resonance, hIL2Rα (CD25); format: binding; details: SPR, Table B
Experimental: (§1) All experiments were performed on a Biacore 8K Surface Plasmon Resonance based biosensor (GE Healthcare). Purified soluble ligands were covalently coupled onto a CM5 sensor chip using an Amine Coupling Kit (GE Healthcare, Product #BR100050) following the manufacturer's recommendations. HBS-EP+ running buffer (10 mM HEPES pH 7.4, 0.15 M NaCl, 3 mM EDTA, 0.005% P-20), ranging in concentration was injected on all flow cells for 7 minutes at 20 μL/min. CD25 and CD122 was captured to surface densities of ˜20 and ˜500 RU, respectively. A non-derivatized flow cell was used as a reference surface. All flow cells were blocked with 100 mM ethylenediamine in 200 mM borate buffer pH 8.5 for 7 minutes at 10 μL/min.
Protein interaction experiments were performed using HBS-EP+(pH 7.4) at 25° C. on each spot. Following capture of antigens, analyte (1.23, 3.7, 11.1, 33.3, 100, 300, and 900 nM concentrations of IL-2 variants) was injected at a flow rate of 50 μL/min in all flow cells for 50 seconds. After each analyte injection, dissociation was monitored for 5 minutes, followed by regeneration of all flow cells with a 20 second injection of 10 mM glycine (pH 2.1). Buffer cycles were collected for each sample for double-referencing purposes (double-referencing as described in Myszka, D. G., Improving biosensor analysis. J. Mol. Recognit. 12, 279-284 (1999)). […]

hILR2β (CD122) = target: T4, hILR2β (CD122); assay: Biacore 8K surface plasmon resonance, hILR2β (CD122); format: binding; details: SPR; for Kd / hILR2β (CD122) kinetics ka / hILR2β (CD122) kinetics kd: HBS-EP+ pH 7.4, 25° C.; for binding affinity to human IL-2Rβ compared with the wild-type IL-2 Fc fusion: Table B
Experimental: as §1
Protein interaction experiments were performed using HBS-EP+(pH 7.4) at 25° C. on each spot. Following capture of antigens, analyte (1.23, 3.7, 11.1, 33.3, 100, 300, and 900 nM concentrations of IL-2 variants) was injected at a flow rate of 50 μL/min in all flow cells for 50 seconds. After each analyte injection, dissociation was monitored for 5 minutes, followed by regeneration of all flow cells with a 20 second injection of 10 mM glycine (pH 2.1). Buffer cycles were collected for each sample for double-referencing purposes (double-referencing as described in Myszka, D. G., Improving biosensor analysis. J. Mol. Recognit. 12, 279-284 (1999)). For kinetic analysis, the double-referenced sensorgrams were fit globally to a simple 1:1 Langmuir with mass transport binding model using Biacore 8K Evaluation Software version 1.1.1.7442. For steady-state affinity analysis, the double-referenced equilibrium binding responses were fit with a 1:1 Langmuir steady-state model using Biacore 8K Evaluation Software version 1.1.1.7442.

[6] = test system: HH cells (IL-2 CD122/CD132 (β/γ) receptor complex); assay: pSTAT5 ELISA in HH cells; format: cell-based; details: for relative selectivity for HH cells vs iTreg cells among the tested molecules: Table C; for Selectivity HH/iTreg: higher value = greater selectivity for HH cells; for EC50: pSTAT5 level 50% of maximum, InstantOne ELISA, read-out: EC50 HH T cell
Experimental: (§2) The ability of the IL-2 variants to activate HH cells and iTregs was measured by monitoring relative changes in phosphorylated STAT5 (pSTAT5) in response to treatment of the cells with the IL-2 variants. pSTAT5 is known to be a downstream consequence of IL-2 signaling. HH T cells (ATCC CRL-2105) are a line of T cells that lack the alpha chain of the IL-2 receptor complex, but that contain the beta and gamma chains of the IL-2 receptor complex. iTreg cells were prepared from Fresh Leuko Paks obtained from […] Technologies (CAT #70500.1, Donor #D001003551).
(§3) For IL-2 activation, the HH cells and iTreg cells were plated at 2*10e6 cells/well in 50 ul serum-free RPMI 1640 media (Gibco), and allowed to rest at 37° C. After resting, cells were treated the IL-2 molecules listed above, and cells were then pelleted by centrifugation.
(§4) Following treatment with the IL-2 molecules, cell induction status was evaluated by the InstantOne ELISA pSTAT5 detection kit (Invitrogen).

[7] = test system: iTreg cells (IL-2 CD25/CD122/CD132 (α/β/γ) receptor complex); assay: pSTAT5 ELISA in iTreg cells; format: cell-based; details: pSTAT5 level 50% of maximum, InstantOne ELISA; read-out: EC50 iTreg cell
Experimental: as §2, §3, §4

CD8 T cells = assay: In vivo expansion of CD8 T cells (spleen immunophenotyping); set-up: species or system mice; details: 0.5, 1, or 2 mg/kg daily for 4 days SC; spleens day 3
Experimental: (§5) Mice were randomized into groups to receive one of the molecules listed above or PBS control. The treatment groups were as follows: PBS; Fc-IL2; Fc-IL2v; […]; Immunophenotyping was conducted on day 3 after the first treatment (day 0) by collecting spleens from each group.

NK cells = assay: In vivo expansion of NK cells (spleen immunophenotyping); set-up: species or system mice; details: 0.5, 1, or 2 mg/kg daily for 4 days SC; spleens day 3
Experimental: as §5

Treg cells = assay: In vivo expansion of Treg cells (spleen immunophenotyping); set-up: species or system mice; details: 0.5, 1, or 2 mg/kg daily for 4 days SC; spleens day 3
Experimental: as §5

B16F10 cells = assay: Tolerability and tumor growth inhibition in B16F10-bearing mice (Example 21); format: in vivo, mouse (C57/BL6); details: for surviving mice: 1 mg/kg SC on days 5, 6, 7, 8, groups of 15, day 12 post first treatment; for tolerability in mice compared with Fc-IL2 and Fc-IL2v: 1 mg/kg SC on days 5-8; for tumor growth inhibition in comparison to PBS control: B16F10 SC, 1 mg/kg SC on days 5-8, surviving mice
From the text: On day 0 of the experiment, female C57/BL6 mice were subcutaneously implanted in the upper thigh with approximately 500,000 B16F10 cells, which had been freshly thawed from a single, low-passage vial (of 1*10^7 cells) and cultured for the minimum time required to establish sufficient cells for implantation.
On day 5 of the experiment, mice were randomized into groups to receive one of the molecules listed above or control. […] Tumor volumes, body weight, and animal survival were tracked throughout the course of the experiment. Animals were sacrificed once tumors reached approximately 2000 mm^3 or 2 weeks post treatment.

Molecule | EC50 (read off the curve), pSTAT5 MFI in NK cells of hPBMC [1] [nM] | EC50 (read off the curve), pSTAT5 MFI in Treg cells of hPBMC [2] [nM] | EC50 (read off the curve), pSTAT5 MFI, murine splenocyte Treg cells [3] [ng/mL] | EC50 (read off the curve), pSTAT5 MFI, murine splenocyte CD8 T cells [4] [ng/mL] | EC50 (read off the curve), pSTAT5 MFI, murine splenocyte NK cells [5] [ng/mL] | binding to IL-2Rα (hIL2Rα (CD25)) | Kd (hILR2β (CD122)) [nM] | hILR2β (CD122) kinetics ka (hILR2β (CD122)) [M⁻¹ s⁻¹] | hILR2β (CD122) kinetics kd (hILR2β (CD122)) [s⁻¹] | binding affinity to human IL-2Rβ compared with the wild-type IL-2 Fc fusion (hILR2β (CD122)) | relative selectivity for HH cells vs iTreg cells among the tested molecules [6] | Selectivity HH/iTreg [6] | EC50 [6] [nM] | EC50 [7] [nM] | expansion of CD8 T cells in vivo (CD8 T cells) | expansion of NK cells in vivo (NK cells) | proliferation of Treg cells in vivo (Treg cells) | surviving mice (B16F10 cells) | tolerability in mice compared with Fc-IL2 and Fc-IL2v (B16F10 cells) | tumor growth inhibition in comparison to PBS control (B16F10 cells)
Fc-IL2-R38N:L40T-T41N:K43T (from UniProt P01857-1) (Fc fusion) | 6 | 20 | – | – | – | – | – | – | – | – | – | – | – | – | – | – | – | – | – | –
human IL-2 variant hIL-2v (F42A, Y45A, L72G), secreted by virus-infected HeLa cells (from UniProt P60568 21-153) (ligand) | – | – | 70 | 100 | 20 | – | – | – | – | – | – | – | – | – | – | – | – | – | – | –
B1 | – | – | – | – | – | do not have measurable binding to IL-2Rα | 3540 | 82600 | 0.292 | retain similar binding affinity | greatest relative selectivity | 6.47 × 10^−2 | 218 | 14.1 | promoted the expansion | promoted the expansion | minimal effects on the proliferation of Treg cells | 11/15 | better tolerated | significant tumor growth inhibition
B2 | – | – | – | – | – | do not have measurable binding to IL-2Rα | 2620 | 89900 | 0.235 | retain similar binding affinity | greatest relative selectivity | 6.89 × 10^−2 | 65.2 | 4.49 | promoted the expansion | promoted the expansion | minimal effects on the proliferation of Treg cells | 14/15 | better tolerated | significant tumor growth inhibition
